Laboratory results taken from patent US20240067729A1 (PALLEON PHARMACEUTICALS, published 2024).
Blank lines part the entries; values can stand above or below the binder they belong to.

What was measured:
[1] = biological target: T1, cynomolgus PD-L1, his tagged (cPD-L1-his) (cynomolgus (Macaca fascicularis), UniProt G7PSE7 19-238); experiment: BLI (ForteBio Octet), cPD-L1-his analyte, 1:1 fit
T1 construct: also called cyPD-L1-His; Cyno PD-L1
Protocol: (§1) Characterization of chimeric anti-PD-L1 antibodies. ForteBio octet binding of purified chimeric antibodies and recombinant hPD-L1-his and cPD-L1-his was measured. Chimeric human antibodies were captured on AHC (Anti-human IgG-Capture) Biosensor, hPD-L1-his or cPD-L1-his analytes were titrated from 100 nM in a 2× series dilution. The buffer reference was subtracted from the signal and aligned to the baseline. KD, Kon and Koff values were generated using 1:1 fitting model as described above.

[2] = biological target: T1, cynomolgus PD-L1, his tagged …; experiment: BLI (ForteBio Octet), IgG on AHC sensor, cPD-L1-his analyte, 1:1 fit
Protocol: as §1

[3] = biological target: T2, human PD-L1 Fc fusion (hPD-L1-Fc) (human, UniProt Q9NZQ7 19-238, limits assumed); experiment: blocking ELISA: antibody titrated + biotin-hPD-1-Fc on coated hPD-L1-Fc
T2 construct: not shown: Fc part
T2 sequence (Q9NZQ7 19-238 limits assumed): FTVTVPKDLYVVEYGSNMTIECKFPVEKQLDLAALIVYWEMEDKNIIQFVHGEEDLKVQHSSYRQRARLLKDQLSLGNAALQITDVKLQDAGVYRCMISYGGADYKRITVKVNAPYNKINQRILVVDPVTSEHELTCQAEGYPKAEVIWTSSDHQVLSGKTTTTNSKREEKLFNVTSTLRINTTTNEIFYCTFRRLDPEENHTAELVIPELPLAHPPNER
Source text: The plate was developed with TMB and Stop buffer, the absorbance at 450 nm was read using SpectraMax plate reader. The A450 absorbance was normalized to the control that without antibody for the percentage values. The curve and IC₅₀ were generated using GraphPad Prism software.
Protein A purified chimeric antibodies were examined by size exclusion chromatography and quantified with a UV-Vis spectrophotometer (NanoDrop; mAU=milli absorbance units).

[4] = biological target: T3, human PD-L1, his tagged (hPD-L1-his) (human, UniProt Q9NZQ7 19-238, limits assumed); experiment: BLI (ForteBio Octet), hPD-L1-his
T3 construct: also called huPD-L1-His; recombinant human PD-L1; not shown: his tag
T3 sequence (Q9NZQ7 19-238 limits assumed): as above
Protocol: as §1, with “above. […]” for “above.”

[5] = biological target: T4, human PD-L1 expressed on cells (HCC827, NCI-H292, CHO-PD-L1, engineered CHO-K1) (human, UniProt Q9NZQ7 19-290); experiment: flow cytometry MFI, CHO-PD-L1 cells (10 nM) against parental CHO cells (100 nM)
T4 construct: whole, on cells; Endogenous on the human lung lines HCC827 and NCI-H292; transfected on CHO cells; also called PD-L1 on HCC827; PD-L1 on NCI-H292
T4 sequence (Q9NZQ7 19-290, stated change not applied): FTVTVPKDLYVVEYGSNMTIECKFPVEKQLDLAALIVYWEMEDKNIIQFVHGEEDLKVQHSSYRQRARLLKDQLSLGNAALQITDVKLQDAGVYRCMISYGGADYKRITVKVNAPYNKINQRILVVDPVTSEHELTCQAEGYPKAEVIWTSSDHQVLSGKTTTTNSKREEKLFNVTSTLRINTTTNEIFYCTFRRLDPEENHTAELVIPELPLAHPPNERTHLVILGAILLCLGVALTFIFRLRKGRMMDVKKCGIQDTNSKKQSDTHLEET
Protocol: CHO cells were incubated with 100 nM antibodies and CHO-PD-L1 cells (from Bioassay) with 10 nM antibodies for 30 min at 4° C. Cells were washed and incubated with goat anti-human IgG(H+L) for 30 in at 4° C. The washed cells were fixed and run on FACSCelesta.

[6] = biological target: T3, human PD-L1, his tagged (hPD-L1-his); experiment: BLI (ForteBio Octet), IgG on AHC sensor, hPD-L1-his analyte, 1:1 fit
Protocol: as §1

[7] = biological target: T4, human PD-L1 expressed on cells (HCC827, …); experiment: flow cytometry on HCC827 cells, apparent Kd
Protocol: (§2) FIG. 14 is a graph showing binding of chimeric PD-L1 antibodies to HCC827 (FIG. 14A) and NCI-H292 (FIG. 14B) lung epithelial cell lines. Binding was measured using a FACS analysis with a […] secondary antibody. MFI=mean fluorescence intensity.
(§3) Purified chimeric antibodies were evaluated for their ability to bind PD-L1 expressed on two human cancer cell lines. HCC827 and NCI-292 cells were incubated with titrated antibodies for 30 min at 4° C. Cells were washed and incubated with AF647-labeled goat anti-human IgG(H+L) for 30 min at 4° C. Cells were washed, fixed and analyzed on FACSCelesta.

[8] = biological target: T4, human PD-L1 expressed on cells (HCC827, …); experiment: cell-based or functional assay
[9] = biological target: T4, human PD-L1 expressed on cells (HCC827, …); experiment: flow cytometry on NCI-H292 cells, apparent Kd
Protocol: as §2, §3

[10] = biological target: T1, cynomolgus PD-L1, his tagged …; experiment: BLI (ForteBio Octet), cPD-L1-his
Protocol: as §1, with “above. […]” for “above.”

[11] = biological target: T3, human PD-L1, his tagged (hPD-L1-his); experiment: BLI (ForteBio Octet), recombinant human PD-L1
[12] = biological target: T3, human PD-L1, his tagged (hPD-L1-his); experiment: BLI (ForteBio Octet), hPD-L1-his; remark: listed apart in the source
Protocol: as §1
Selected h769 antibodies were tested in the blocking ELISA as described in Example 3 herein. […] Selected h769 humanized PD-L1 antibodies were characterized following removal of the deamidation motif in CDR-L3. FIG. 25 depicts the ForteBio octet binding of purified humanized antibodies and recombinant hPD-L1-his was measured.

[13] = biological target: T3, human PD-L1, his tagged (hPD-L1-his); experiment: BLI (ForteBio Octet), human PD-L1
[14] = biological target: T1, cynomolgus PD-L1, his tagged …; experiment: BLI (ForteBio Octet), cynomolgus PD-L1
[15] = biological target: T4, human PD-L1 expressed on cells (HCC827, …); experiment: cell-based or functional assay; remark: listed apart in the source
[16] = biological target: T4, human PD-L1 expressed on cells (HCC827, …); experiment: flow cytometry on HCC827 cells, apparent Kd; calculated using data points up to 3.7 nM
Protocol: (§4) The ability of PD-L1 antibody sialidase conjugates to bind PD-L1 on HCC827 and NCI-H292 cells was examined next. […] After washing with staining buffer, cells were incubated with AF647 Goat anti-human IgG(H+L) in staining buffer at 4° C. for 30 min. After 2× wash with staining buffer, cells were fixed and run on FACSCelesta.

[17] = biological target: T4, human PD-L1 expressed on cells (HCC827, …); experiment: flow cytometry on NCI-H292 cells, apparent Kd; calculated using data points up to 3.7 nM
Protocol: as §4

[18] = biological target: human PD-L1 (hPD-L1) coated on ELISA wells, Example 7 (human, UniProt Q9NZQ7 19-238, limits assumed); experiment: blocking ELISA: titrated + biotinylated hPD-1-Fc 1 ug/mL on coated hPD-L1
Sequence of human PD-L1 (hPD-L1) coated on ELISA wells, Example 7 (Q9NZQ7 19-238 limits assumed): as the sequence (Q9NZQ7 19-238 limits assumed) above
Source text: The plate was developed with TMB and Stop buffer and the absorbance at 450 nm was read using a SpectraMax plate reader.

T1 sequence (G7PSE7 entry or part of it limits assumed, form in doubt): as the sequence (Q9NZQ7 19-238 limits assumed) above, with A33T, A34S, S62N, R68Q, Q82R, F173L, T185A, T192I, H215L counted along it

Kd [11]: 1.76 nM
koff [11]: 0.000629 s⁻¹
kon [11]: 357000 M⁻¹ s⁻¹
Kd [12]: 1.82 nM
koff [12]: 0.000597 s⁻¹
kon [12]: 328000 M⁻¹ s⁻¹
B3: h769-N93T (h769.T), humanized 769-hIgG1 variant (antibody, V domains shown)
VH: EVQLVQSGAEVKKPGATVKISCKVSGFNIKDTYMHWVQQAPGKGLEWMGLIDPANDNTIYAEKFQGRVTITADTSTDTAYMELSSLRSEDTAVYYCAREGYGGSYGEGYWGQGTLVTVSS
VL: EIVMTQSPPTLSLSPGERVTLSCRASQSVSNDLSWYQQKPGQAPRLLIYYASIRFTGIPARFSGSGSGTDFTLTISSLQPEDFAVYYCQQDYTSPWTFGQGTKVEIK
notes: Human IgG1

Kd [13]: 2.13 nM
koff [13]: 0.000728 s⁻¹
kon [13]: 346000 M⁻¹ s⁻¹
Kd [14]: 1.53 nM
koff [14]: 0.000443 s⁻¹
kon [14]: 297000 M⁻¹ s⁻¹
EC50 (NFAT-luciferase fold induction) [15]: 0.56 nM
Kd [16]: 0.125 nM
Kd [17]: 0.0973 nM
IC50 [18]: 1.44 nM
B4: h769.T-1A (antibody, V domains shown)
VH: B3 VH
VL: B3 VL
notes: bivalent

The next lines start with the binder.

B1: Avelumab (antibody, human IgG1, lambda, V domains shown)
VH: EVQLLESGGGLVQPGGSLRLSCAASGFTFSSYIMMWVRQAPGKGLEWVSSIYPSGGITFYADTVKGRFTISRDNSKNTLYLQMNSLRAEDTAVYYCARIKLGTVTTVDYWGQGTLVTVSS
VL: QSALTQPASVSGSPGQSITISCTGTSSDVGGYNYVSWYQQHPGKAPKLMIYDVSNRPSGVSNRFSGSKSGNTASLTISGLQAEDEADYYCSSYTSSSTRVFGTGTKVTVLG
Kd [1]: 1.7 nM
Kd [2]: 0.994 nM

B2: 769-hIgG1 (chimeric PAL769) (antibody, V domains shown)
VH: EVQLQESGAELVKPGASVTLSCTASGFNIKDTYMHWVKQRPEQGLEWIGRIDPANDNTKYDPKFQDKATITADTSSDTAYLRLSSLTSEDTAVYYCAREGYGGSYGEGYWGQGTTLTVSS
VL: SIVMTQTPKFLLVSAGDRVTITCKASQSVSNDVIWYQQKPGQSPKLLIYYASIRFTGVPDRFAGSGYGTDFTFTINTVQAEDLAVYFCQQDYNSPWTFGGGTKLEIK
IC50 [3]: 1.6 nM
Kd [4]: 2.59 nM
koff [4]: 0.000967 s⁻¹
kon [4]: 373000 M⁻¹ s⁻¹
Bind PD-L1-CHO/CHO [5]: > 100 x
Kd [6]: 0.64 nM
Kd [7]: 0.17 nM
IC50, nM (Function) [8]: 0.5 nM
Kd [9]: 0.12 nM
Kd [10]: 2.92 nM
koff [10]: 0.000685 s⁻¹
kon [10]: 238000 M⁻¹ s⁻¹
Kd [2]: 0.55 nM
